Experimental findings from IntAct's records for PubMed 21240188 are described below.

B1: Fanconi anemia group J protein (Homo sapiens), Q9BX63 (parent)
chain: MSSMWSEYTIGGVKIYFPYKAYPSQLAMMNSILRGLNSKQHCLLESPTGSGKSLALLCSALAWQQSLSGKPADEGVSEKAEVQLSCCCACHSKDFTNNDMNQGTSRHFNYPSTPPSERNGTSSTCQDSPEKTTLAAKLSAKKQASIYRDENDDFQVEKKRIRPLETTQQIRKRHCFGTEVHNLDAKVDSGKTVKLNSPLEKINSFSPQKPPGHCSRCCCSTKQGNSQESSNTIKKDHTGKSKIPKIYFGTRTHKQIAQITRELRRTAYSGVPMTILSSRDHTCVHPEVVGNFNRNEKCMELLDGKNGKSCYFYHGVHKISDQHTLQTFQGMCKAWDIEELVSLGKKLKACPYYTARELIQDADIIFCPYNYLLDAQIRESMDLNLKEQVVILDEAHNIEDCARESASYSVTEVQLRFARDELDSMVNNNIRKKDHEPLRAVCCSLINWLEANAEYLVERDYESACKIWSGNEMLLTLHKMGITTATFPILQGHFSAVLQKEEKISPIYGKEEAREVPVISASTQIMLKGLFMVLDYLFRQNSRFADDYKIAIQQTYSWTNQIDISDKNGLLVLPKNKKRSRQKTAVHVLNFWCLNPAVAFSDINGKVQTIVLTSGTLSPMKSFSSELGVTFTIQLEANHIIKNSQVWVGTIGSGPKGRNLCATFQNTETFEFQDEVGALLLSVCQTVSQGILCFLPSYKLLEKLKERWLSTGLWHNLELVKTVIVEPQGGEKTNFDELLQVYYDAIKYKGEKDGALLVAVCRGKVSEGLDFSDDNARAVITIGIPFPNVKDLQVELKRQYNDHHSKLRGLLPGRQWYEIQAYRALNQALGRCIRHRNDWGALILVDDRFRNNPSRYISGLSKWVRQQIQHHSTFESALESLAEFSKKHQKVLNVSIKDRTNIQDNESTLEVTSLKYSTSPYLLEAASHLSPENFVEDEAKICVQELQCPKIITKNSPLPSSIISRKEKNDPVFLEEAGKAEKIVISRSTSPTFNKQTKRVSWSSFNSLGQYFTGKIPKATPELGSSENSASSPPRFKTEKMESKTVLPFTDKCESSNLTVNTSFGSCPQSETIISSLKIDATLTRKNHSEHPLCSEEALDPDIELSLVSEEDKQSTSNRDFETEAEDESIYFTPELYDPEDTDEEKNDLAETDRGNRLANNSDCILAKDLFEIRTIKEVDSAREVKAEDCIDTKLNGILHIEESKIDDIDGNVKTTWINELELGKTHEIEIKNFKPSPSKNKGMFPGFK

This assay covers variants of B1. The note with it: with brca1_human BRCA1, P38398.
brca1_human BRCA1, P38398, sequence (P38398 whole entry, looked up): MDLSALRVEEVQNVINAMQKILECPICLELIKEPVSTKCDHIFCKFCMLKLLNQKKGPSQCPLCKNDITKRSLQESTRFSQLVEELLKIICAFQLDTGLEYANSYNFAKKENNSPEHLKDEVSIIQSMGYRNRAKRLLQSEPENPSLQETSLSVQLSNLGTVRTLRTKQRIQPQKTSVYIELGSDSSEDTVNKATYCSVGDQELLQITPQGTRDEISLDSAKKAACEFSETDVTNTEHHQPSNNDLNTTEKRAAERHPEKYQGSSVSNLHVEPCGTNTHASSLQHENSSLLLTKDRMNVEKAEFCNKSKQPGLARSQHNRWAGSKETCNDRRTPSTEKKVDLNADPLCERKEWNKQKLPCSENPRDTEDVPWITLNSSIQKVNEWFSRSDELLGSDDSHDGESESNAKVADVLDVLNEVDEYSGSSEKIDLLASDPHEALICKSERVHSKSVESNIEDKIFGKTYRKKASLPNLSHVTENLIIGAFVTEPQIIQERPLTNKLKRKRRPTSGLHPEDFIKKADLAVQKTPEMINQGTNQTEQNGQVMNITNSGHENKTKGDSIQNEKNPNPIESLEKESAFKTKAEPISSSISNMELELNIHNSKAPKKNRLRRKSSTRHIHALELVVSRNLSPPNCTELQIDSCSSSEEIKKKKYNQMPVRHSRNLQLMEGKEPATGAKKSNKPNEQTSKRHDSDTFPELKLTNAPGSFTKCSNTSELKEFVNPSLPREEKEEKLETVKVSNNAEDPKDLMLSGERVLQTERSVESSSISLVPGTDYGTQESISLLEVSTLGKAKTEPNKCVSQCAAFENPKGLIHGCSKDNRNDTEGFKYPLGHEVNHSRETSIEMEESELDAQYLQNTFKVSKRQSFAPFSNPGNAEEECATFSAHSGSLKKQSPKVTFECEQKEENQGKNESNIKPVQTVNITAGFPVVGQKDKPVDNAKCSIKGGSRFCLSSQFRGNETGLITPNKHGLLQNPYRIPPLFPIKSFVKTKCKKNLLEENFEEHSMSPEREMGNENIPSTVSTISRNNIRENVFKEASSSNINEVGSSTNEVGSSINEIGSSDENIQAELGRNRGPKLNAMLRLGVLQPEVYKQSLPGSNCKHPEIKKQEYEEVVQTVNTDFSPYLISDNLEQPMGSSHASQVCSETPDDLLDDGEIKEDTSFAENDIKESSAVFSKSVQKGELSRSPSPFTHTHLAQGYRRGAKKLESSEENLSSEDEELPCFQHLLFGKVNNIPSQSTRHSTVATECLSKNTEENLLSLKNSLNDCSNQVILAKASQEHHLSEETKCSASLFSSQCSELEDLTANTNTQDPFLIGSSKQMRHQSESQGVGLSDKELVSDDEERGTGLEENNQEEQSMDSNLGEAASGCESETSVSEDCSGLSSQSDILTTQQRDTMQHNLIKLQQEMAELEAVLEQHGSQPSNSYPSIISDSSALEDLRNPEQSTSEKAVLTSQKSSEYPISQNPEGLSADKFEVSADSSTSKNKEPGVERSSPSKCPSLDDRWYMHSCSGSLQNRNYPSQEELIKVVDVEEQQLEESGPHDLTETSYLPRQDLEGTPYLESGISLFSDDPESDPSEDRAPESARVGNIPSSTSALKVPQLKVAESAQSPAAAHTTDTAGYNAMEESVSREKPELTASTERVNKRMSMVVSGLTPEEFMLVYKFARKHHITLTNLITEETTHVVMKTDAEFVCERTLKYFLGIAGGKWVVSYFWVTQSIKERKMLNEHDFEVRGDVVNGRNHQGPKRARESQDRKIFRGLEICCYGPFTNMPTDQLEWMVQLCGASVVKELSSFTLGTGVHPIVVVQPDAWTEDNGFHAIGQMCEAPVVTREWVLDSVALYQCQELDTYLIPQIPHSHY
With S990A, the “effect of a mutation on the interaction” value is listed as “disrupting interaction”.
